Reference: paper doi:10.1101/2022.02.13.480237 (bioRxiv, 2022)

T1: GST^4CS-RGA^C374S recombinant protein (Arabidopsis, UniProt Q9SLH3 1-587, C374S)
T1 sequence (looked up): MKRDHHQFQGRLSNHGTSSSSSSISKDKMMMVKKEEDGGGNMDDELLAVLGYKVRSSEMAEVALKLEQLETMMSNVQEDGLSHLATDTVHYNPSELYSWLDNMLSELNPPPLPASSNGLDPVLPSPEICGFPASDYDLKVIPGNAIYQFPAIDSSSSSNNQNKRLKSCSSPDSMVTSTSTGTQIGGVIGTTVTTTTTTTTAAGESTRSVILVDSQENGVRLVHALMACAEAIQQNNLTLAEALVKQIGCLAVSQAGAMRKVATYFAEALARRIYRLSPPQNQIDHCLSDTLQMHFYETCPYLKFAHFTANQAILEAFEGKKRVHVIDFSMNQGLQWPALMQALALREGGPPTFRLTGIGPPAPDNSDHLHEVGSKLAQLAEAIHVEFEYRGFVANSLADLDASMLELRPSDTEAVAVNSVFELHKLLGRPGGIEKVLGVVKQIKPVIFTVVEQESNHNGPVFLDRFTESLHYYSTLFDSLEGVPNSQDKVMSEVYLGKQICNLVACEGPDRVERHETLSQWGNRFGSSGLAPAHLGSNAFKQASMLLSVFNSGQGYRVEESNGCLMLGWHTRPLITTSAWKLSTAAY

T2: GST^4CS-RGA recombinant protein (REPRESSOR-OF-ga1-3) (Arabidopsis, UniProt Q9SLH3 1-587)
T2 sequence (looked up): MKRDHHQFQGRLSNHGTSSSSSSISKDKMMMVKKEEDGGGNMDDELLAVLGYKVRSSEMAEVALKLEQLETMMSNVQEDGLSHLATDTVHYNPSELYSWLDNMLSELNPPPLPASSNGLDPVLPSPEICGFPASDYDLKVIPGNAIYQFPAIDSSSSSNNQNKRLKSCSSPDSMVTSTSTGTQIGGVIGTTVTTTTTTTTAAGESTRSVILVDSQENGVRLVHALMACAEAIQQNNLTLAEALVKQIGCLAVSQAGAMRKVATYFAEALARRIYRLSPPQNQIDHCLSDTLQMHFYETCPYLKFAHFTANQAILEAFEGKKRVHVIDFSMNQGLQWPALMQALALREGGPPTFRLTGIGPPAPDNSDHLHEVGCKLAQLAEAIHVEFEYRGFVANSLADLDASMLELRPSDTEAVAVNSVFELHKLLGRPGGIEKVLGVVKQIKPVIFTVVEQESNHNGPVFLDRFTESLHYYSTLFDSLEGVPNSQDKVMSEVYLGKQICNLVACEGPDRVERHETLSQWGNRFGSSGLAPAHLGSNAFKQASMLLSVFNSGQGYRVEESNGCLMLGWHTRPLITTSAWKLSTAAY

B1: His-SLY1 recombinant protein (F-box protein SLEEPY1) (natural protein, Arabidopsis, UniProt Q9STX3 1-151, looked up)
chain: MKRSTTDSDLAGDAHNETNKKMKSTEEEEIGFSNLDENLVYEVLKHVDAKTLAMSSCVSKIWHKTAQDERLWELICTRHWTNIGCGQNQLRSVVLALGGFRRLHSLYLWPLSKPNPRARFGKDELKLTLSLLSIRYYEKMSFTKRPLPESK
B2: His-GID1c recombinant protein (GA-… DWARF1c) (receptor, Arabidopsis, UniProt Q940G6 1-344, looked up)
chain: MAGSEEVNLIESKTVVPLNTWVLISNFKLAYNLLRRPDGTFNRHLAEFLDRKVPANANPVNGVFSFDVIIDRQTNLLSRVYRPADAGTSPSITDLQNPVDGEIVPVIVFFHGGSFAHSSANSAIYDTLCRRLVGLCGAVVVSVNYRRAPENRYPCAYDDGWAVLKWVNSSSWLRSKKDSKVRIFLAGDSSGGNIVHNVAVRAVESRIDVLGNILLNPMFGGTERTESEKRLDGKYFVTVRDRDWYWRAFLPEGEDREHPACSPFGPRSKSLEGLSFPKSLVVVAGLDLIQDWQLKYAEGLKKAGQEVKLLYLEQATIGFYLLPNNNHFHTVMDEIAAFVNAECQ
B3: His-GID1a recombinant protein (GA-… DWARF1a) (receptor, Arabidopsis, UniProt Q9MAA7 1-345, looked up)
chain: MAASDEVNLIESRTVVPLNTWVLISNFKVAYNILRRPDGTFNRHLAEYLDRKVTANANPVDGVFSFDVLIDRRINLLSRVYRPAYADQEQPPSILDLEKPVDGDIVPVILFFHGGSFAHSSANSAIYDTLCRRLVGLCKCVVVSVNYRRAPENPYPCAYDDGWIALNWVNSRSWLKSKKDSKVHIFLAGDSSGGNIAHNVALRAGESGIDVLGNILLNPMFGGNERTESEKSLDGKYFVTVRDRDWYWKAFLPEGEDREHPACNPFSPRGKSLEGVSFPKSLVVVAGLDLIRDWQLAYAEGLKKAGQEVKLMHLEKATVGFYLLPNNNHFHNVMDEISAFVNAEC

Tests used:
[1] = biological target: T1, GST^4CS-RGA^C374S recombinant protein; assay: pull-down
[2] = biological target: T2, GST^4CS-RGA recombinant protein …; assay: pull-down

Binder	binding result [1]	binding result [2]
B1	binds	
B2		binds
B3		binds
